Substitutions are numbered along the chain they refer to.
Experiments:
[1] = target: T1, canine CD3εδ-Fc (heterodimer of canine CD3ε-hIgG4PE-knob and canine CD3δ-hIgG4PE-hole) (canine); assay: SPR Biacore 8K, single cycle, CD3εδ-Fc amine-coupled on CM5, antibody at 16.5, 33 and 66 nM
T1 construct: also called CD3εδ-Fc fusion protein; copies: 1 + 1
Protocol: Candidates CD3 bispecific antibodies were also screened for their ability to bind canine CD3εδ-Fc using surface plasmon resonance (SPR) using a Biacore 8K (Cytiva). Canine CD3εδ-Fc was covalently bound by amine coupling to the surface of a CM5 chip (Cytiva). CHO cell supernatant was diluted to 66, 33 and 16.5 nM in HBS-EP+ buffer and run on the chip single cycle kinetic protocol. Data was analysed using the dedicated software (Biacore Insight Evaluation Software).

[2] = target: T2, canine CD20 on cells (HEK293, MDCK II, CLBL-1 or native B cells) (canine, UniProt Q3C2E2 1-297); assay: flow cytometry, canine CD20 HEK293 cells, FITC anti-canine IgG
T2 construct: also called dCD20; cCD20
T2 chain: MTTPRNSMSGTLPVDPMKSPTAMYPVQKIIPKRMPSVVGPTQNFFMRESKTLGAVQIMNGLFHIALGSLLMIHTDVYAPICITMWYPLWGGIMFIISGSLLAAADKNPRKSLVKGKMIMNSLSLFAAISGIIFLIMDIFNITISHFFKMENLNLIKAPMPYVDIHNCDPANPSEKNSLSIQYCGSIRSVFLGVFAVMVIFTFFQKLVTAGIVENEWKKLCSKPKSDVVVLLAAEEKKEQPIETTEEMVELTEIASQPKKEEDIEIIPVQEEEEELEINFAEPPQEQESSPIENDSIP
Protocol: (§1) A CD20 binding screen was performed on candidate proteins produced from the canine CD20 immunisation as described in Examples 2 and 3. CHO cells supernatants containing candidate antibodies were diluted to 10 μg/ml in FACS buffer (PBS containing 3% FBS) and screened for their ability to bind canine CD20 expressed on cell surface. In brief, 1-2×10⁵ canine CD20-expressing HEK cells were incubated with candidate mAbs for one hour at 4° C., at a fixed concentration of 10 μg/ml followed by incubation with 5 μg/ml of FITC-conjugated anti-canine IgG secondary antibody (Bethyl Laboratories) for 1 hour at 4° C. Cells incubated with anti-canine IgG FITC secondary antibody and without primary anti-canine CD20 antibody, or with isotype control primary antibody, were used as negative controls. The data were acquired on either a Beckman Coulter CytoFLEX or a BD Accuri C6 Plus flow cytometer and analysed using FlowJo software.

[3] = target: T2, canine CD20 on cells (HEK293, MDCK II, …); assay: flow cytometry, canine CD20-expressing HEK cells, 10 µg/ml
Protocol: as §1

T1 sequence (chain, as listed by the source mutant limits assumed): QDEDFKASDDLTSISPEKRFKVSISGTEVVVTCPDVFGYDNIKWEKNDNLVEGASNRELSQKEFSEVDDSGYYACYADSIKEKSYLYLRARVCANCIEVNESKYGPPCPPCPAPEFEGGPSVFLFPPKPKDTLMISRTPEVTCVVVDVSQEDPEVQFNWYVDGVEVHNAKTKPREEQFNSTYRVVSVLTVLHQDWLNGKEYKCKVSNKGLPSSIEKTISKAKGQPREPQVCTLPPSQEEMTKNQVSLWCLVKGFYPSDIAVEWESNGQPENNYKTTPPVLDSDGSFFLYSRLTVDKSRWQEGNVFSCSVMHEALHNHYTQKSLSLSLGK

B1: PMX159 in bispecific format (canine CD3 arm PMX159 x Rituximab arm, human IgG4PE knob-in-hole) (bispecific antibody)
heavy 1: ELTLQESGPGLVKPSQTLSLTCVVSGGSVTRSYYWNWIRQRPGRGLEWMGYWTGSTIYNPTFQGRISITADTAKSQFSLQLRSMTTEDTAMYFCAREGGKSLGAFAYWGQGTLVTVSSASTKGPSVFPLAPCSRSTSESTAALGCLVKDYFPEPVTVSWNSGALTSGVHTFPAVLQSSGLYSLSSVVTVPSSSLGTKTYTCNVDHKPSNTKVDKRVESKYGPPCPPCPAPEFEGGPSVFLFPPKPKDTLMISRTPEVTCVVVDVSQEDPEVQFNWYVDGVEVHNAKTKPREEQFNSTYRVVSVLTVLHQDWLNGKEYKCKVSNKGLPSSIEKTISKAKGQPREPQVYTLPPSQCEMTKNQVSLSCAVKGFYPSDIAVEWESNGQPENNYKTTPPVLDSDGSFFLVSRLTVDKSRWQEGNVFSCSVMHEALHNRFTQKSLSLSLGK
light 1: SYVLTQLPSKNVTLKQPAHITCGGDKIGSKNVHWYQQKLGQAPVMIIYYDSSRPTGIPERFSGANSGNTATLTISGALAEDEADYYCQVWDSSAKAAVFGGGTHLTVLRTVAAPSVFIFPPSDEQLKSGTASVVCLLNNFYPREAKVQWKVDNALQSGNSQESVTEQDSKDSTYSLSSTLTLSKADYEKHKVYACEVTHQGLSSPVTKSFNRGEC
heavy 2: not shown
light 2: QIVLSQSPAILSASPGEKVTMTCRASSSVSYIHWFQQKPGSSPKPWIYATSNLASGVPVRFSGSGSGTSYSLTISRVEAEDAATYYCQQWTSNPPTFGGGTKLEIKRTVAAPSVFIFPPSDEQLKSGTASVVCLLNNFYPREAKVQWKVDNALQSGNSQESVTEQDSKDSTYSLSSTLTLSKADYEKHKVYACEVTHQGLSSPVTKSFNRGEC
binding result [1]: binds

B2: PMX162 in bispecific format (canine CD3 arm PMX162 x Rituximab arm, human IgG4PE knob-in-hole) (bispecific antibody)
heavy 1: EMQLVESGGDLVKPGGSLRLSCVASGFTFSTYHMSWVRQAPGKGLQWVAYSNSGGTRTYYADAVKGRFTISRDNVKNTLYLQMNSLRAEDTAVYYCASEGSGGGRYGFKDYGMDYWGHGTSLFVSTASTKGPSVFPLAPCSRSTSESTAALGCLVKDYFPEPVTVSWNSGALTSGVHTFPAVLQSSGLYSLSSVVTVPSSSLGTKTYTCNVDHKPSNTKVDKRVESKYGPPCPPCPAPEFEGGPSVFLFPPKPKDTLMISRTPEVTCVVVDVSQEDPEVQFNWYVDGVEVHNAKTKPREEQFNSTYRVVSVLTVLHQDWLNGKEYKCKVSNKGLPSSIEKTISKAKGQPREPQVYTLPPSQCEMTKNQVSLSCAVKGFYPSDIAVEWESNGQPENNYKTTPPVLDSDGSFFLVSRLTVDKSRWQEGNVFSCSVMHEALHNRFTQKSLSLSLGK
light 1: B1 light 1 with K26N, N31S, M45L, A97W, G101E, H104Q
heavy 2: not shown
light 2: B1 light 2
binding result [1]: binds

B3: PMX160 in bispecific format (canine CD3 arm PMX160 x Rituximab arm, human IgG4PE knob-in-hole) (bispecific antibody)
heavy 1: EVQMVESGGDLVKPGGSLRFSCVASGFTFSSYHMSWVRQAPGKGLQWVAYINSGGSRTSYADAVKGRFTISRDNAKNTLYLQMNSLRAEDTAVYYCASGRSPPPLGSFDYGLDYWGHGTSLFVSSASTKGPSVFPLAPCSRSTSESTAALGCLVKDYFPEPVTVSWNSGALTSGVHTFPAVLQSSGLYSLSSVVTVPSSSLGTKTYTCNVDHKPSNTKVDKRVESKYGPPCPPCPAPEFEGGPSVFLFPPKPKDTLMISRTPEVTCVVVDVSQEDPEVQFNWYVDGVEVHNAKTKPREEQFNSTYRVVSVLTVLHQDWLNGKEYKCKVSNKGLPSSIEKTISKAKGQPREPQVYTLPPSQCEMTKNQVSLSCAVKGFYPSDIAVEWESNGQPENNYKTTPPVLDSDGSFFLVSRLTVDKSRWQEGNVFSCSVMHEALHNRFTQKSLSLSLGK
light 1: B1 light 1 with K26N, N31S, M45L, A97W, G101E, H104Q
heavy 2: not shown
light 2: B1 light 2
binding result [1]: binds

B4: PMX251 (monospecific anti-canine CD20, canine IgG-B, lambda C5) (antibody, V domains shown)
VH: EVQLVESGGDLVKPGGSLRLSCVASGFTFSSYHMSWVRQAPGKGLQWVAYINSGGSSTSYADAVKGRFTISRDNAKNTLYLQMNSLRAEDTAVYYCASFDYWGQGTLVTVSS
VL: SYVLTQLPSKNVTLKQPAHITCGGDNIGSKSVHWYQQKLGQAPVLIIYYDSSRPTGIPERFSGANSGNTATLTISGALAEDEADYYCQVWDSSANVFGGGTHLTVLG
binding result [2]: no binding (tested: 10 µg/ml)

B5: PMX250 (monospecific anti-canine CD20, canine IgG-B, lambda C5) (antibody, V domains shown)
VH: B4 VH with N84T, A97T
VL: B4 VL
binding result [2]: no binding (tested: 10 µg/ml)

B6: PMX244 (monospecific anti-canine CD20, canine IgG-B, lambda C5) (antibody, V domains shown)
VH: B4 VH with S31R, S57D, T58S, S59D, A97T, F99L
VL: B4 VL with V44I, S51R, S52R, S92R, A94G
binding result [3]: binds

Source: patent US20240209086A1 (PETMEDIX, published 2024)
